{"source": "the supplement of paper PMC11246515", "assay": "total protein half-life in vivo (active degradation + dilution); higher = more stable protein", "key": {"[1]": {"conditions": "E. coli NCM3722 delta-clpP delta-lon delta-hslV, growth: N-lim chemostat, doubling time 6 h"}, "[2]": {"conditions": "E. coli NCM3722 delta-clpP, growth: N-lim chemostat, doubling time 6 h"}, "[3]": {"conditions": "E. coli NCM3722 delta-hslV, growth: N-lim chemostat, doubling time 6 h"}, "[4]": {"conditions": "E. coli NCM3722 delta-lon, growth: N-lim chemostat, doubling time 6 h"}, "[5]": {"conditions": "E. coli NCM3722 delta-smpB, growth: N-lim chemostat, doubling time 6 h"}, "[6]": {"conditions": "wild type E. coli NCM3722, growth: C-lim chemostat, doubling time 3 h"}, "[7]": {"conditions": "wild type E. coli NCM3722, growth: C-lim chemostat, doubling time 6 h"}, "[8]": {"conditions": "wild type E. coli NCM3722, growth: C-lim chemostat, doubling time 12 h"}, "[9]": {"conditions": "wild type E. coli NCM3722, growth: N-lim chemostat, doubling time 6 h"}, "[10]": {"conditions": "wild type E. coli NCM3722, growth: N-lim chemostat, doubling time 12 h"}, "[11]": {"conditions": "wild type E. coli NCM3722, growth: P-lim chemostat, doubling time 6 h"}, "[12]": {"conditions": "wild type E. coli NCM3722, growth: P-lim chemostat, doubling time 12 h"}}, "note": "± gives the standard deviation of the averaged measurements.", "data": [{"sequence": "MLKREMNIADYDAELWQAMEQEKVRQEEHIELIASENYTSPRVMQAQGSQLTNKYAEGYPGKRYYGGCEYVDIVEQLAIDRAKELFGADYANVQPHSGSQANFAVYTALLEPGDTVLGMNLAHGGHLTHGSPVNFSGKLYNIVPYGIDATGHIDYADLEKQAKEHKPKMIIGGFSAYSGVVDWAKMREIADSIGAYLFVDMAHVAGLVAAGVYPNPVPHAHVVTTTTHKTLAGPRGGLILAKGGSEELYKKLNSAVFPGGQGGPLMHVIAGKAVALKEAMEPEFKTYQQQVAKNAKAMVEVFLERGYKVVSGGTDNHLFLVDLVDKNLTGKEADAALGRANITVNKNSVPNDPKSPFVTSGIRVGTPAITRRGFKEAEAKELAGWMCDVLDSINDEAVIERIKGKVLDICARYPVYA [P0A825]", "values": [{"measurement": "total protein half-life in vivo", "setting": "[1]", "value": "4.68 ± 1", "unit": "h"}, {"measurement": "total protein half-life in vivo", "setting": "[2]", "value": "3.83 ± 0.091", "unit": "h"}, {"measurement": "total protein half-life in vivo", "setting": "[3]", "value": "3.87 ± 0.15", "unit": "h"}, {"measurement": "total protein half-life in vivo", "setting": "[4]", "value": "4.35 ± 0.27", "unit": "h"}, {"measurement": "total protein half-life in vivo", "setting": "[5]", "value": "3.8 ± 0.26", "unit": "h"}, {"measurement": "total protein half-life in vivo", "setting": "[6]", "value": "3.22 ± 0.18", "unit": "h"}, {"measurement": "total protein half-life in vivo", "setting": "[7]", "value": "5.51 ± 0.18", "unit": "h"}, {"measurement": "total protein half-life in vivo", "setting": "[8]", "value": "10.7 ± 2.1", "unit": "h"}, {"measurement": "total protein half-life in vivo", "setting": "[9]", "value": "3.814 ± 0.011", "unit": "h"}, {"measurement": "total protein half-life in vivo", "setting": "[10]", "value": "5.98 ± 0.077", "unit": "h"}, {"measurement": "total protein half-life in vivo", "setting": "[11]", "value": "5.73 ± 0.5", "unit": "h"}, {"measurement": "total protein half-life in vivo", "setting": "[12]", "value": "11.3 ± 0.74", "unit": "h"}]}, {"sequence": "MLKRLLKRPSLNLLAWLLLAAFYISICLNIAFFKQVLQALPLDSLHNVLVFLSMPVVAFSVINIVLTLSSFLWLNRPLACLFILVGAAAQYFIMTYGIVIDRSMIANIIDTTPAESYALMTPQMLLTLGFSGVLAALIACWIKIKPATSRLRSVLFRGANILVSVLLILLVAALFYKDYASLFRNNKELVKSLSPSNSIVASWSWYSHQRLANLPLVRIGEDAHRNPLMQNEKRKNLTILIVGETSRAENFSLNGYPRETNPRLAKDNVVYFPNTASCGTATAVSVPCMFSDMPREHYKEELAQHQEGVLDIIQRAGINVLWNDNDGGCKGACDRVPHQNVTALNLPDQCINGECYDEVLFHGLEEYINNLQGDGVIVLHTIGSHGPTYYNRYPPQFRKFTPTCDTNEIQTCTKEQLVNTYDNTLVYVDYIVDKAINLLKEHQDKFTTSLVYLSDHGESLGENGIYLHGLPYAIAPDSQKQVPMLLWLSEDYQKRYQVDQNCLQKQAQTQHYSQDNLFSTLLGLTGVETKYYQAADDILQTCRRVSE", "values": [{"measurement": "total protein half-life in vivo", "setting": "[1]", "value": "7.04 ± 1.1", "unit": "h"}, {"measurement": "total protein half-life in vivo", "setting": "[3]", "value": "6.05 ± 0.36", "unit": "h"}, {"measurement": "total protein half-life in vivo", "setting": "[4]", "value": "6.41 ± 0.43", "unit": "h"}, {"measurement": "total protein half-life in vivo", "setting": "[5]", "value": "6.19 ± 0.59", "unit": "h"}, {"measurement": "total protein half-life in vivo", "setting": "[6]", "value": "3.22 ± 0.046", "unit": "h"}, {"measurement": "total protein half-life in vivo", "setting": "[7]", "value": "6.12 ± 0.22", "unit": "h"}, {"measurement": "total protein half-life in vivo", "setting": "[8]", "value": "10.7 ± 1.6", "unit": "h"}, {"measurement": "total protein half-life in vivo", "setting": "[9]", "value": "6.42 ± 0.21", "unit": "h"}, {"measurement": "total protein half-life in vivo", "setting": "[10]", "value": "12.3 ± 0.34", "unit": "h"}, {"measurement": "total protein half-life in vivo", "setting": "[11]", "value": "6.03 ± 0.31", "unit": "h"}, {"measurement": "total protein half-life in vivo", "setting": "[12]", "value": "13 ± 0.68", "unit": "h"}]}, {"sequence": "MLKRVFLSLLVLIGLLLLTVLGLDRWMSWKTAPYIYDELQDLPYRQVGVVLGTAKYYRTGVINQYYRYRIQGAINAYNSGKVNYLLLSGDNALQSYNEPMTMRKDLIAAGVDPSDIVLDYAGFRTLDSIVRTRKVFDTNDFIIITQRFHCERALFIALHMGIQAQCYAVPSPKDMLSVRIREFAARFGALADLYIFKREPRFLGPLVPIPAMHQVPEDAQGYPAVTPEQLLELQKKQGK [P0AFY2]", "values": [{"measurement": "total protein half-life in vivo", "setting": "[1]", "value": "5.75 ± 0.44", "unit": "h"}, {"measurement": "total protein half-life in vivo", "setting": "[3]", "value": "6.88 ± 0.82", "unit": "h"}, {"measurement": "total protein half-life in vivo", "setting": "[4]", "value": "5.72 ± 0.66", "unit": "h"}, {"measurement": "total protein half-life in vivo", "setting": "[5]", "value": "6.021 ± 0.027", "unit": "h"}, {"measurement": "total protein half-life in vivo", "setting": "[6]", "value": "3.1 ± 0.074", "unit": "h"}, {"measurement": "total protein half-life in vivo", "setting": "[7]", "value": "5.81 ± 0.24", "unit": "h"}, {"measurement": "total protein half-life in vivo", "setting": "[8]", "value": "10.9 ± 0.74", "unit": "h"}, {"measurement": "total protein half-life in vivo", "setting": "[9]", "value": "5.85 ± 0.23", "unit": "h"}, {"measurement": "total protein half-life in vivo", "setting": "[10]", "value": "11.6 ± 1.1", "unit": "h"}, {"measurement": "total protein half-life in vivo", "setting": "[11]", "value": "5.92 ± 0.26", "unit": "h"}, {"measurement": "total protein half-life in vivo", "setting": "[12]", "value": "12.3 ± 0.33", "unit": "h"}]}, {"sequence": "MLKTIQDKARHRTRPLWAWLKLLWQRIDEDNMTTLAGNLAYVSLLSLVPLVAVVFALFAAFPMFSDVSIQLRHFIFANFLPATGDVIQRYIEQFVANSNKMTAVGACGLIVTALLLMYSIDSALNTIWRSKRARPKIYSFAVYWMILTLGPLLAGASLAISSYLLSLRWASDLNTVIDNVLRIFPLLLSWISFWLLYSIVPTIRVPNRDAIVGAFVAALLFEAGKKGFALYITMFPSYQLIYGVLAVIPILFVWVYWTWCIVLLGAEITVTLGEYRKLKQAAEQEEDDEP [P0A8K8]", "values": [{"measurement": "total protein half-life in vivo", "setting": "[5]", "value": 4.46, "unit": "h"}, {"measurement": "total protein half-life in vivo", "setting": "[6]", "value": "> 4", "unit": "h"}, {"measurement": "total protein half-life in vivo", "setting": "[9]", "value": 7.67, "unit": "h"}, {"measurement": "total protein half-life in vivo", "setting": "[12]", "value": "> 16", "unit": "h"}]}, {"sequence": "MLKTIRKHGITLALFAAGSTGLTAAINQMTKTTIAEQASLQQKALFDQVLPAERYNNALAQSCYLVTAPELGKGEHRVYIAKQDDKPVAAVLEATAPDGYSGAIQLLVGADFNGTVLGTRVTEHHETPGLGDKIELRLSDWITHFAGKKISGADDAHWAVKKDGGDFDQFTGATITPRAVVNAVKRAGLYAQTLPAQLSQLPACGE", "values": [{"measurement": "total protein half-life in vivo", "setting": "[1]", "value": "5.83 ± 1.8", "unit": "h"}, {"measurement": "total protein half-life in vivo", "setting": "[3]", "value": "6.171 ± 0.022", "unit": "h"}, {"measurement": "total protein half-life in vivo", "setting": "[4]", "value": "5.52 ± 1.2", "unit": "h"}, {"measurement": "total protein half-life in vivo", "setting": "[5]", "value": "6.06 ± 0.48", "unit": "h"}, {"measurement": "total protein half-life in vivo", "setting": "[6]", "value": "3.07 ± 0.086", "unit": "h"}, {"measurement": "total protein half-life in vivo", "setting": "[7]", "value": "5.7 ± 0.36", "unit": "h"}, {"measurement": "total protein half-life in vivo", "setting": "[8]", "value": "10.6 ± 1.6", "unit": "h"}, {"measurement": "total protein half-life in vivo", "setting": "[9]", "value": "5.75 ± 0.07", "unit": "h"}, {"measurement": "total protein half-life in vivo", "setting": "[10]", "value": "11.9 ± 0.64", "unit": "h"}, {"measurement": "total protein half-life in vivo", "setting": "[11]", "value": "5.82 ± 0.13", "unit": "h"}, {"measurement": "total protein half-life in vivo", "setting": "[12]", "value": "11.9 ± 0.49", "unit": "h"}]}, {"sequence": "MLLAGAIFVLTIVLVIWQPKGLGIGWSATLGAVLALVTGVVHPGDIPVVWNIVWNATAAFIAVIIISLLLDESGFFEWAALHVSRWGNGRGRLLFTWIVLLGAAVAALFANDGAALILTPIVIAMLLALGFSKGTTLAFVMAAGFIADTASLPLIVSNLVNIVSADFFGLGFREYASVMVPVDIAAIVATLVMLHLYFRKDIPQNYDMALLKSPAEAIKDPATFKTGWVVLLLLLVGFFVLEPLGIPVSAIAAVGALILFVVAKRGHAINTGKVLRGAPWQIVIFSLGMYLVVYGLRNAGLTEYLSGVLNVLADNGLWAATLGTGFLTAFLSSIMNNMPTVLVGALSIDGSTASGVIKEAMVYANVIGCDLGPKITPIGSLATLLWLHVLSQKNMTISWGYYFRTGIIMTLPVLFVTLAALALRLSFTL [P0AB93]", "values": [{"measurement": "total protein half-life in vivo", "setting": "[3]", "value": 6.25, "unit": "h"}, {"measurement": "total protein half-life in vivo", "setting": "[9]", "value": 5.83, "unit": "h"}, {"measurement": "total protein half-life in vivo", "setting": "[10]", "value": 12.1, "unit": "h"}, {"measurement": "total protein half-life in vivo", "setting": "[12]", "value": "13.8 ± 1.1", "unit": "h"}]}, {"sequence": "MLLSIITVAFRNLEGIVKTHASLAHLAQVEDISFEWIVVDGGSNDGTREYLENLNGIFNLRFVSEPDNGIYDAMNKGIAMAQGKFALFLNSGDIFHQNAANFVRKLKMQKDNVMITGDALLDFGDGHKIKRSAKPGWYIYHSLPASHQAIFFPVSGLKKWRYDLEYKVSSDYALAAKMYKAGYAFKKLNGLVSEFSMGGVSTTNNMELCADAKKVQRQILHVPGFWAELSWHLRQRTTSKTKALYNKV", "values": [{"measurement": "total protein half-life in vivo", "setting": "[1]", "value": "4.85 ± 0.28", "unit": "h"}, {"measurement": "total protein half-life in vivo", "setting": "[4]", "value": "1.5 ± 0.23", "unit": "h"}, {"measurement": "total protein half-life in vivo", "setting": "[5]", "value": "0.818 ± 0.0095", "unit": "h"}]}, {"sequence": "MLMLFLTVAMVHIVALMSPGPDFFFVSQTAVSRSRKEAMMGVLGITCGVMVWAGIALLGLHLIIEKMAWLHTLIMVGGGLYLCWMGYQMLRGALKKEAVSAPAPQVELAKSGRSFLKGLLTNLANPKAIIYFGSVFSLFVGDNVGTTARWGIFALIIVETLAWFTVVASLFALPQMRRGYQRLAKWIDGFAGALFAGFGIHLIISR [P0AG38]", "values": [{"measurement": "total protein half-life in vivo", "setting": "[2]", "value": 1.14, "unit": "h"}, {"measurement": "total protein half-life in vivo", "setting": "[3]", "value": 0.979, "unit": "h"}, {"measurement": "total protein half-life in vivo", "setting": "[4]", "value": 0.822, "unit": "h"}, {"measurement": "total protein half-life in vivo", "setting": "[5]", "value": "1.13 ± 0.1", "unit": "h"}, {"measurement": "total protein half-life in vivo", "setting": "[9]", "value": 1.13, "unit": "h"}, {"measurement": "total protein half-life in vivo", "setting": "[12]", "value": "2.22 ± 0.65", "unit": "h"}]}]}
